Laboratory results as given in US10428140B2, “Anti-EphA4 antibody” (EISAI R&D MANAGEMENT CO., LTD., priority 2015, dated 2019).
Substitutions are numbered along the chain they refer to. Each block holds one molecule with its values, some of them ahead of it.

Assays:
Experiment in all cases: Selectivity ELISA of humanized antibodies for human Eph receptor
Assay type in all cases: binding
Conditions in all cases: coated protein 1 nM
human EphB6 = target: T1, human EphB6 (Homo sapiens, UniProt O15197)
T1 construct: a protein of the extracellular region of each human Eph receptor fused with the SEAP protein and the His tag; made in house; host or cells: Expi293F cells
T1 sequence (O15197 32-594 limits assumed): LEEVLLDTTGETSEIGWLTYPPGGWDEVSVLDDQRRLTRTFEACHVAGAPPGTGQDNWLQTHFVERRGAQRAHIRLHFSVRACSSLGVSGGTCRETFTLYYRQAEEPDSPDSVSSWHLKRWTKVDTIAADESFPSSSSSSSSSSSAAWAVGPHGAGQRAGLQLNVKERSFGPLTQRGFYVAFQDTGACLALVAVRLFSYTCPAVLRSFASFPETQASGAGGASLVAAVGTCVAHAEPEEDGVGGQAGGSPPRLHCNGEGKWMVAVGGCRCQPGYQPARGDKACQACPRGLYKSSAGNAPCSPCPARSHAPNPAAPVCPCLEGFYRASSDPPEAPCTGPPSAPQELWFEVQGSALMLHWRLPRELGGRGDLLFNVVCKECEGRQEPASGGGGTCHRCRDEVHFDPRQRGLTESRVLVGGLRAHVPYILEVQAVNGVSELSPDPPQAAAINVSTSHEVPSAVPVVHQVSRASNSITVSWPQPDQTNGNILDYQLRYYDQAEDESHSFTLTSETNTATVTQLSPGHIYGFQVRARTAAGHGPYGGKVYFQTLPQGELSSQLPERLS
Method in brief: (§1)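 Read-out is A450 after TMB development stopped with 1N H2SO4. Plates bore anti-His-captured human Eph extracellular region-SEAP-His proteins at 1 nM final, made in Expi293F cells. Humanized antibody binding ran 1 h at room temperature before HRP-labeled anti-IgG detection.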

SEAP-His = SEAP-His (Homo sapiens, UniProt P05187)
Method in brief: as §1

human EphA2 = target: T2, human EphA2 (Homo sapiens, UniProt P29317)
T2 construct: a protein of the extracellular region of each human Eph receptor fused with the SEAP protein and the His tag; made in house; host or cells: Expi293F cells (culture supernatant)
Method in brief: as §1

human EphA6 = target: T3, human EphA6 (Homo sapiens, UniProt Q9UF33)
T3 construct: a protein of the extracellular region of each human Eph receptor fused with the SEAP protein and the His tag; made in house; host or cells: Expi293F cells (culture supernatant)
T3 sequence (Q9UF33 23-550 limits assumed): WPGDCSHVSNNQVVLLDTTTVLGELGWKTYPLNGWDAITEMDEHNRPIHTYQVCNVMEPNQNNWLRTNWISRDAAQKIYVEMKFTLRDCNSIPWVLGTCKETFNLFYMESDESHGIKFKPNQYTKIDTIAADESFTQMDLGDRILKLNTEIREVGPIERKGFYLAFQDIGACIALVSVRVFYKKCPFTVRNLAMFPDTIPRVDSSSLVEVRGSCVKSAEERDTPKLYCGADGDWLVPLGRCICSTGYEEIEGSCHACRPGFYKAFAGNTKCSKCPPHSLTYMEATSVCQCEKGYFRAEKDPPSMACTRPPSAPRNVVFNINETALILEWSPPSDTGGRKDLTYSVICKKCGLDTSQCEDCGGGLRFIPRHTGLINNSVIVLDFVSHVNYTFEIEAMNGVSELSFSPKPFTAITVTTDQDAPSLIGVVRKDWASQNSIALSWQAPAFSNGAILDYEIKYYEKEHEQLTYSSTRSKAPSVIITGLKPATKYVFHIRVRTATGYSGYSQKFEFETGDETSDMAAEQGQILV
Method in brief: as §1

SEAP-His, sequence (P05187 23-511 limits assumed): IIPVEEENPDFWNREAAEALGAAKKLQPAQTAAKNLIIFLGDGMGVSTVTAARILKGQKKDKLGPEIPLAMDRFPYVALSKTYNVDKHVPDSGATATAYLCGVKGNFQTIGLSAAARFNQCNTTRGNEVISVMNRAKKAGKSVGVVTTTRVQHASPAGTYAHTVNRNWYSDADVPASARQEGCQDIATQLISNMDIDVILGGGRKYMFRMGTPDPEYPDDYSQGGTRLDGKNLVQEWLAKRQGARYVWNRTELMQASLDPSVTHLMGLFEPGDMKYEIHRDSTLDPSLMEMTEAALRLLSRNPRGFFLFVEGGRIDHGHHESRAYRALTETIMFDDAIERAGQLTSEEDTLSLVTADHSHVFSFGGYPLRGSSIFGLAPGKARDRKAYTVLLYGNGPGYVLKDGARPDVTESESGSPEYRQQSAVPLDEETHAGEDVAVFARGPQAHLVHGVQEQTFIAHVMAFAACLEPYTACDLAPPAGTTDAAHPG
T2 sequence (P29317 24-537 limits assumed): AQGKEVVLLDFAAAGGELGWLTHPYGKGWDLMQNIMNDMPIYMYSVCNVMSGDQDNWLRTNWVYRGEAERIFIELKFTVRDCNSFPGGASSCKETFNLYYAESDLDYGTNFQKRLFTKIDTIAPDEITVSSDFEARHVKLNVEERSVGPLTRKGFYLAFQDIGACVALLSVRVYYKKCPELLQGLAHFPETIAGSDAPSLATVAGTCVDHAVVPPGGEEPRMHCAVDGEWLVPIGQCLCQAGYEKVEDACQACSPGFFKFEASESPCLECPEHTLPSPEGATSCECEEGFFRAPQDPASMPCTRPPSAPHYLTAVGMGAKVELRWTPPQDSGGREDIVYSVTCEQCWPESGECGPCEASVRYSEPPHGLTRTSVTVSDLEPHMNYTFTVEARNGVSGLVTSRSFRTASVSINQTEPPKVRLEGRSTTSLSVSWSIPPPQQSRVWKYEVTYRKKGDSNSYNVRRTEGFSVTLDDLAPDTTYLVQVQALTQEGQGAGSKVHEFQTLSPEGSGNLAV

B2: 145 (antibody, V domains shown)
VH: QVQLVQSGSELKKPGASVKVSCKASGYTFTDYSMHWVRQAPGQGLKWMGWINTETGEPTYADDFKGRFVFSLDTSVSTAYLQISSLKAEDTAVYYCARIPLYYYGSRYWYFDVWGQGTTVTVSS
VL: DIQMTQSPSSLSASVGDRVTITCRASENIYRNLAWYQQKPGKAPKLLLYAATNLADGVPSRFSGSGSGTDYTLTISSLQSEDFATYYCQHFWGTPWTFGQGTKVEIK
modifications: synthetic humanized antibody heavy chain variable region sequence; synthetic humanized antibody light chain variable region sequence
hEphB6-SEAP-: absorbance at 450 nm, percentage with respect to hEphA4-SEAP-His as 100% (human EphB6): 6.6%
SEAP-His: absorbance at 450 nm, percentage with respect to hEphA4-SEAP-His as 100% (SEAP-His): 6.4%
hEphA2-SEAP-: absorbance at 450 nm, percentage with respect to hEphA4-SEAP-His as 100% (human EphA2): 6.5%
hEphA6-SEAP-: absorbance at 450 nm, percentage with respect to hEphA4-SEAP-His as 100% (human EphA6): 8.6%

B4: 153 (antibody, V domains shown)
VH: B2 VH with D62Q, D63G, K65T
VL: B2 VL
modifications: synthetic humanized antibody heavy chain variable region sequence; synthetic humanized antibody light chain variable region sequence
hEphB6-SEAP-: absorbance at 450 nm, percentage with respect to hEphA4-SEAP-His as 100% (human EphB6): 6.2%
SEAP-His: absorbance at 450 nm, percentage with respect to hEphA4-SEAP-His as 100% (SEAP-His): 5.9%
hEphA2-SEAP-: absorbance at 450 nm, percentage with respect to hEphA4-SEAP-His as 100% (human EphA2): 6.0%
hEphA6-SEAP-: absorbance at 450 nm, percentage with respect to hEphA4-SEAP-His as 100% (human EphA6): 8.7%

B5: 152 (antibody, V domains shown)
VH: B2 VH with K46E, D62Q, D63G, K65T
VL: B2 VL
modifications: synthetic humanized antibody heavy chain variable region sequence; synthetic humanized antibody light chain variable region sequence
hEphB6-SEAP-: absorbance at 450 nm, percentage with respect to hEphA4-SEAP-His as 100% (human EphB6): 5.9%
SEAP-His: absorbance at 450 nm, percentage with respect to hEphA4-SEAP-His as 100% (SEAP-His): 5.4%
hEphA2-SEAP-: absorbance at 450 nm, percentage with respect to hEphA4-SEAP-His as 100% (human EphA2): 5.8%
hEphA6-SEAP-: absorbance at 450 nm, percentage with respect to hEphA4-SEAP-His as 100% (human EphA6): 8.3%

Results, then the molecule that gave them:

hEphB6-SEAP-: absorbance at 450 nm, percentage with respect to hEphA4-SEAP-His as 100% (human EphB6): 5.6%
SEAP-His: absorbance at 450 nm, percentage with respect to hEphA4-SEAP-His as 100% (SEAP-His): 6.3%
hEphA2-SEAP-: absorbance at 450 nm, percentage with respect to hEphA4-SEAP-His as 100% (human EphA2): 5.7%
hEphA6-SEAP-: absorbance at 450 nm, percentage with respect to hEphA4-SEAP-His as 100% (human EphA6): 9.9%
B1: 143 (antibody, V domains shown)
VH: B2 VH with V2I
VL: B2 VL with L48V, S80P
modifications: synthetic humanized antibody heavy chain variable region sequence; synthetic humanized antibody light chain variable region sequence

hEphB6-SEAP-: absorbance at 450 nm, percentage with respect to hEphA4-SEAP-His as 100% (human EphB6): 7.1%
SEAP-His: absorbance at 450 nm, percentage with respect to hEphA4-SEAP-His as 100% (SEAP-His): 6.8%
hEphA2-SEAP-: absorbance at 450 nm, percentage with respect to hEphA4-SEAP-His as 100% (human EphA2): 6.9%
hEphA6-SEAP-: absorbance at 450 nm, percentage with respect to hEphA4-SEAP-His as 100% (human EphA6): 9.9%
B3: 151 (antibody, V domains shown)
VH: B2 VH with V2I, D62Q, D63G, K65T
VL: B2 VL
modifications: synthetic humanized antibody heavy chain variable region sequence; synthetic humanized antibody light chain variable region sequence

hEphB6-SEAP-: absorbance at 450 nm, percentage with respect to hEphA4-SEAP-His as 100% (human EphB6): 6.4%
SEAP-His: absorbance at 450 nm, percentage with respect to hEphA4-SEAP-His as 100% (SEAP-His): 6.3%
hEphA2-SEAP-: absorbance at 450 nm, percentage with respect to hEphA4-SEAP-His as 100% (human EphA2): 6.2%
hEphA6-SEAP-: absorbance at 450 nm, percentage with respect to hEphA4-SEAP-His as 100% (human EphA6): 8.4%
B6: 154 (antibody, V domains shown)
VH: B2 VH with K46E
VL: B2 VL
modifications: synthetic humanized antibody heavy chain variable region sequence; synthetic humanized antibody light chain variable region sequence
